# From article PMC2913173 (Journal of molecular biology, 2009)
# Ends that are not written are not given here. eCPX = enhanced circularly permuted OmpX display protein
# Target: T1, Bcl-xL (Homo sapiens, UniProt Q07817, DEL46-85)
# Assay: Cell surface display equilibrium binding assay with flow cytometry
# Settings: cells displaying Bak–eCPX fusions, biotinylated Bcl-xL and SAPE
row,Substance,Binding to Bcl-xL in words (fluorescence of cell population)
1,"Bak(72–85): Bak(72–87) with deletion of residues N86 and R87, eCPX fusion (GQVGRQLAIIGDDI-eCPX)",reduction in binding to nearly background levels
2,Bak(72–117): eCPX fusion protein comprising helices α3 and α4 of Bak (GQVGRQLAIIGDDINRRYDSEFQTMLQHLQPTAENAYEYFTKIATS-eCPX),fluorescence only slightly above background levels
3,Bak(74–87) GG: eCPX–Bak(74–87) in which the GQ sequence preceding the Bak peptide was changed to GG (GGVGRQLAIIGDDINR-eCPX),bound Bcl-xL equally as well as Bak(72–87)
4,"L78A: Bak(72–87) with the critical leucine in position 78 changed to alanine, displayed on eCPX (GQVGRQAAIIGDDINR-eCPX) [Construct L78A]",only background fluorescence
5,"mut7: Bak(72–87) library variant: position 74 L, 78 L, 81 L, 85 F (GQLGRQLAILGDDFNR-eCPX)",highest fluorescence
6,"mut8: Bak(72–87) library variant: position 74 L, 78 L, 81 F, 85 F (GQLGRQLAIFGDDFNR-eCPX)",highest fluorescence

# Target: T1, Bcl-xL
# Assay: not given
# Settings: L78A amino acid change relative to Bak(72–87); cited from earlier work
row,Substance,Decrease in binding affinity of Bak(72–87) for Bcl-xL [fold]
1,"L78A: Bak(72–87) with the critical leucine in position 78 changed to alanine, displayed on eCPX (GQVGRQAAIIGDDINR-eCPX) [Construct L78A]",~1000
